Measured values as given in publication PMC4597910.
Read-outs that look alike come from different tables or passages of the source.

Tests used:
[1] = biological target: T1, GB1-SRSF1 RRM1+2 (UniProt Q07955 16-195); experiment: NMR titration
[2] = biological target: T1, GB1-SRSF1 RRM1+2; experiment: NMR titration; remark: listed apart in the source

T1 sequence (Q07955 16-195): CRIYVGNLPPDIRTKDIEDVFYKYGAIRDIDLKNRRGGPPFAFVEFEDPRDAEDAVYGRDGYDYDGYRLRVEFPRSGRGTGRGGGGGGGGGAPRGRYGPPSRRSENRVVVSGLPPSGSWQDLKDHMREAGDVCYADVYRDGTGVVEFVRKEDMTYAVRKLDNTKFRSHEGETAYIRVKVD

| Binder | binding result [1] | binding result [2] |
| --- | --- | --- |
| UCACUGGA (ssRNA) [UCACUGGA mutant] | binds |  |
| UCAGAGGA (ssRNA) [WT UCAGAGGA] |  | binds |
